The record followed here is patent US20130052739.

Where two headings read alike, the source gives them in different places.

The target of data set [1] is T1, FLP recombinase (native yeast) (Saccharomyces cerevisiae) (UniProt P03870).
T1 sequence: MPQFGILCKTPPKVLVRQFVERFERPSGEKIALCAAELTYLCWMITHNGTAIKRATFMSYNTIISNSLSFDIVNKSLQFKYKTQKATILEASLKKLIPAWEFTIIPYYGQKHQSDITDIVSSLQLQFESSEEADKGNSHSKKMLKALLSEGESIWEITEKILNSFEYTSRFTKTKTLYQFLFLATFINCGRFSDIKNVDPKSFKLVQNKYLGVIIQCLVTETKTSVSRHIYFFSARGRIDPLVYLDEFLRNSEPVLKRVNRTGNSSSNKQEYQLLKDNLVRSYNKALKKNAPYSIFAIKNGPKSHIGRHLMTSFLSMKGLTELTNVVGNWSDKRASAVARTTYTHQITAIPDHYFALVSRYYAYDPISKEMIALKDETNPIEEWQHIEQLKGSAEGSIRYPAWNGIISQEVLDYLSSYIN
Briefly: cleavage_in_vitro.

In data set [2] the target is T1, FLP recombinase (native yeast) (Saccharomyces cerevisiae).

Turning to “AGTTCCTATACTATACAAAGAATAGGAACT (double strand) [FRT70]”, in data set [1] (30 C, 10 mM MgCl2), the activity (% excision efficiency relative to FRT1) is 25.

Consider “AGTTCCTATACTCCACAGAGAATAGGAACT (double strand) [FRT55]”, for which, in data set [1] (30 C, 10 mM MgCl2), the activity (% excision efficiency relative to FRT1) was determined as 7.

Take “AGTTCCTATACTCTATGTAGAATAGGAACT (double strand) [FRT12]”: in data set [1] (30 C, 10 mM MgCl2), the activity (% excision efficiency relative to FRT1) was found to be 102.

Turning to “AGTTCCTATACTCTCTAGAGAATAGGAACT (double strand) [FRT89]”, in data set [1] (30 C, 10 mM MgCl2), the activity (% excision efficiency relative to FRT1) turned out to be 39.

Take “AGTTCCTATACTCTCTTGAGAATAGGAACT (double strand) [FRT45]”: the activity (% excision efficiency relative to FRT1) in data set [1] (30 C, 10 mM MgCl2) is 5.

As to “AGTTCCTATACTCTTTTGAGAATAGGAACT (double strand) [FRT5]”, in data set [2] (in vitro co-integration FRT5+FRT5, 10 mM MgCl2, 5 mM DTT), the activity (% co-integrants at 2 h) worked out at 0.09. Moreover, the activity (% excision efficiency relative to FRT1) in data set [1] (30 C, 10 mM MgCl2) was found to be 15.

With “AGTTCCTATACTGAAAAGAGAATAGGAACT (double strand) [FRT78]”, the activity (% excision efficiency relative to FRT1) in data set [1] (30 C, 10 mM MgCl2) was determined as 60.

On to “AGTTCCTATACTGAGAGAAGAATAGGAACT (double strand) [FRT74]”, for which, in data set [1] (30 C, 10 mM MgCl2), the activity (% excision efficiency relative to FRT1) turned out to be 5.

“AGTTCCTATACTGATTGGAGAATAGGAACT (double strand) [FRT65]”: the activity (% excision efficiency relative to FRT1) in data set [1] (30 C, 10 mM MgCl2) came out at 18.

For “AGTTCCTATACTGTAAAAAGAATAGGAACT (double strand) [FRT53]”, the activity (% excision efficiency relative to FRT1) in data set [1] (30 C, 10 mM MgCl2) worked out at 64.

“AGTTCCTATACTGTAATGAGAATAGGAACT (double strand) [FRT34]”: the activity (% excision efficiency relative to FRT1) in data set [1] (30 C, 10 mM MgCl2) amounted to 34.

For the sequence “AGTTCCTATACTTCCATAAGAATAGGAACT (double strand) [FRT76]”, the activity (% excision efficiency relative to FRT1) in data set [1] (30 C, 10 mM MgCl2) amounted to 30.

For “AGTTCCTATACTTCCGAGAGAATAGGAACT (double strand) [FRT43]”, in data set [1] (30 C, 10 mM MgCl2), the activity (% excision efficiency relative to FRT1) was determined as 14.

For “AGTTCCTATACTTTAGGTAGAATAGGAACT (double strand) [FRT62]”, the activity (% excision efficiency relative to FRT1) in data set [1] (30 C, 10 mM MgCl2) stood at 72.

On to “AGTTCCTATACTTTCTAGAGAATAGGAACT (double strand) [FRT1 (wild-type minimal FRT)]”, for which, in data set [2] (in vitro co-integration FRT1+FRT1, 10 mM MgCl2, 5 mM DTT), the activity (% co-integrants at 2 h) was determined as 1.03. In addition, in data set [1] (reference pair, 25 mM Tris pH 7.5, 10 mM MgCl2, 5 mM DTT, 30 C 30 min), the activity (% excision efficiency relative to FRT1) came out at 100.

As for “AGTTCCTATACTTTCTCGAGAATAGGAACT (double strand) [FRT86]”, the activity (% excision efficiency relative to FRT1) in data set [1] (30 C, 10 mM MgCl2) stood at 12.

“AGTTCCTATACTTTCTGGAGAATAGGAACT (double strand) [FRT87]”: the activity (% excision efficiency relative to FRT1) in data set [1] (30 C, 10 mM MgCl2) stood at 93.

For “AGTTCCTATACTTTCTTGAGAATAGGAACT (double strand) [FRT85]”, the activity (% excision efficiency relative to FRT1) in data set [1] (30 C, 10 mM MgCl2) is 116.

With “AGTTCCTATACTTTTCTAAGAATAGGAACT (double strand) [FRT57]”, the activity (% excision efficiency relative to FRT1) in data set [1] (30 C, 10 mM MgCl2) stood at 82.

Turning to “AGTTCCTATACTTTTGTGAGAATAGGAACT (double strand) [FRT69]”, the activity (% excision efficiency relative to FRT1) in data set [1] (30 C, 10 mM MgCl2) stood at 9.

On to “AGTTCCTATACTTTTTGAAGAATAGGAACT (double strand) [FRT6]”, for which, in data set [2] (in vitro co-integration FRT6+FRT6, 10 mM MgCl2, 5 mM DTT), the activity (% co-integrants at 2 h) was found to be 0.27.
